For the test, the target named is T1, peptide spanning amino acids 14-28 of human ghrelin (human).
T1 peptide: QRKESKKPPAKLQPR
The test can be described thus: FLIPR assay, peptide competes with hGhrelin for the Fab (Fab 20 nM). The procedure: The final concentration of the sample solution is 0.75% BSA, and calcium at approximately the same concentration as in the FLIPR buffer. Fifty microliters of the sample solution is added to the 50 μl FLIPR buffer in the well with the AV12 cells. […] The cell plate is shaken for 15 seconds prior to loading it into the FLIPR instrument. Test samples or control samples are added to each well, and read by a Fluorometric Imaging Plate Reader (Molecular Devices).

Data on one molecule can be found in patent US20060233788A1 (published 2006).

B1: Fab 1451 (Fab, V domains shown)
VH: QVHVKQSGPELVRPGASVKMSCKASAYTFTTYWMHWVKQRPGQGLEWIGMIDPYNSETWLNQKFKDKATLNVDRSSNTAYMKLSSLTSEDSAVYYCARTGFDYWGQGTTLTVSS
VL: DVVLTQTPLSLPVSLGDQASISCRSSQSLVHSNGNTYLHWYLQKPGQSPKLLIYKVSNRFSGVPDRFSGSGSGTDFTLKISRVEAEDLGVYFCSQSTHVPYTFGGGTKLEIKR
notes: Mouse Fab
Turning to B1, the binding result was “no binding (tested: 100 nM peptide)”.
